Three molecules from patent publication US20120309692A1 can be followed below.

This experiment deals with recombinant human glandular kallikrein 2 (hK2) (human) (UniProt P20151). Description: cell-based or functional assay.

B1: protein C inhibitor (PCI) (protein, UniProt P05154 20-406, looked up)
chain: HRHHPREMKKRVEDLHVGATVAPSSRRDFTFDLYRALASAAPSQSIFFSPVSISMSLAMLSLGAGSSTKMQILEGLGLNLQKSSEKELHRGFQQLLQELNQPRDGFQLSLGNALFTDLVVDLQDTFVSAMKTLYLADTFPTNFRDSAGAMKQINDYVAKQTKGKIVDLLKNLDSNAVVIMVNYIFFKAKWETSFNHKGTQEQDFYVTSETVVRVPMMSREDQYHYLLDRNLSCRVVGVPYQGNATALFILPSEGKMQQVENGLSEKTLRKWLKMFKKRQLELYLPKFSIEGSYQLEKVLPSLGISNVFTSHADLSGISNHSNIQVSEMVHKAVVEVDESGTRAAAATGTIFTFRSARLNSQRLVFNRPFLMFIVDNNILFLGKVNRP
Consider B1, for which the hK2 Activity (%) of inhibitor-free control, inhibitor at 0.016 µM is 50% and the hK2 Activity (%) of inhibitor-free control, inhibitor at 0.08 µM is 0%.

B2: α1-antichymotrypsin (ACT) (protein, human, UniProt P01011 24-423, looked up)
chain: HPNSPLDEENLTQENQDRGTHVDLGLASANVDFAFSLYKQLVLKAPDKNVIFSPLSISTALAFLSLGAHNTTLTEILKGLKFNLTETSEAEIHQSFQHLLRTLNQSSDELQLSMGNAMFVKEQLSLLDRFTEDAKRLYGSEAFATDFQDSAAAKKLINDYVKNGTRGKITDLIKDLDSQTMMVLVNYIFFKAKWEMPFDPQDTHQSRFYLSKKKWVMVPMMSLHHLTIPYFRDEELSCTVVELKYTGNASALFILPDQDKMEEVEAMLLPETLKRWRDSLEFREIGELYLPKFSISRDYNLNDILLQLGIEEAFTSKADLSGITGARNLAVSQVVHKAVLDVFEEGTEASAATAVKITLLSALVETRTIVRFNRPFLMIIVPTDTQNIFFMSKVTNPKQA
Take B2: the hK2 Activity (%) of inhibitor-free control, inhibitor at 0.8 µM was found to be 100%.

B3: PSTI (protein, UniProt P00995 24-79, looked up)
chain: DSLGREAKCYNELNGCTKIYDPVCGTDGNTYPNECVLCFENRKRQTSILIQKSGPC
Turning to B3, the hK2 Activity (%) of inhibitor-free control, inhibitor at 0.08 µM was 100% and the hK2 Activity (%) of inhibitor-free control, inhibitor at 4 µM worked out at 89%.
